The values that follow come from the DeepSol protein solubility set.

This series is described as follows: soluble on expression in E. coli; label from the status in PepcDB or PDB records.
For the sequence “MGSDKIHHHHHHMFYPEKRDGFSRTGKFEVEGRTVQTPAILEVGEIPEWDFGLAPTSLKFISEELYSRLRPINEEVEILTSLHLLSPRQLVQVFEDLSKEGVSPKPLYAASSALPSNVSLLIYLGADLVDNVLAIAKAYSGIYFLGEVEVEISKLRRLPCNCIHCRNRVVDEVENLLETTAKHNTEMLRMEVEKCRRLILNEELRNYVEGKVKLNPEFTAALRLSDSLRNHSTFPRFRKSRCNFSALESSSRFEVRYFFERALECYKPFSDTVLLLPCTARKPYLTSRTHRALRSKVKVNVNEIIISSPLVVPREFELLYPAVNYDTPVTGHWSEEEVSFVAGWLKRFIEKGGFRKVVAHVTGGYRKVVERVEDEVEAEVVYTAEKDVLSDESIERLKQEIESKGKVDLYRRILEHMLSYQFGITWSGKVAGRYPELELLEGKKRLARVDRIYGMLDIYEKIAAYLLEKNIYTVEIGDFEVKGTIFAGGVLRADEKIRPNDVVVFHNSRIFGVGLAAMSGKEMAGSEKGIAINVKRKFSF”, the “soluble on expression in E. coli” value is given as “not soluble”.

As to “MDNQISVPPALTGNYAFFFDLDGTLADIQPHPDQVVIPDSTLQALNALAQQQGGAVALISGRSMAELDALTHPWRLPLAGVHGAERRDINGKTYIVSLPTALRDEIAAELTSALEALPGCELESKEMAFALHYRQAPQQQSAVLELAQRIVQRYPLLALQLGKCVVEIKPRGVNKGEAITAFMQEAPFAGREPVFVGDDLTDEAGFSVVNQLQGMSVKVGAGETQAHWRLADAAAVRTWLQHLAYDAQTERRDDHESFSRSL”, the “soluble on expression in E. coli” value is “not soluble”.

For “MLDGLTYAYGDLIEKVPDFEIIQRKSPKSGKVALVSGGGSGHKPAHAGFVGEGMLSAAVCGAIFTSPTPDQIYEAIKSADEGAGVLLIIKNYLGDVMNFEMAREMAEMEEIKVEQIIVDDDIAVENSLYTQGRRGVAGTVLVHKILGAAAHQEASLDEIKDLADKVVKNIKTIGLALSAATVPEVGKPGFVLDDNEIEYGVGIHSEPGYRREKMKTSYELATELVGKLKEEFKFEAGQKYGILVNGMGATPLMEQFIFMNDVAKLLTEENIEILFKKVGNYMTSIDMAGLSLTMIKLEDDQWLKNLNEDVKTISWGLEHHHHHH”, the “soluble on expression in E. coli” value was “not soluble”.

For the sequence “MISVNKVFYAHSERFQMQNMNVHIKAGEVVSLIGPNGSGKSTLLRLMARLLKQSEGDIVLDGKSIHTMKSADVAKQLAMLPQMHDHQLDLTVKELIEFGRGPHKSWRGRLNKEDEEIVDWALSVTNLEGYEYRLLQSLSGGERQRAWIAMTLAQRTNVLLLDEPTTFLDIVHQLEVMELVKRLNEEFGMTIIMVLHDINQAAQYSDRLLVLKRGKLQYDGVPEEVLCHEMFQHIFGIEVDIFQGSEKPFFTPKRISKKGGAKCEQKNVLPLS”, the “soluble on expression in E. coli” value was “not soluble”.

In the case of “MLRWITAGESHGRALVAVVEGMVAGVHVTSADIADQLARRRLGYGRGARMTFERDAVTVLSGIRHGSTLGGPIAIEIGNTEWPKWETVMAADPVDPAELADVARNAPLTRPRPGHADYAGMLKYGFDDARPVLERASARETAARVAAGTVARAFLRQALGVEVLSHVISIGASAPYEGPPPRAEDLPAIDASPVRAYDKAAEADMIAQIEAAKKDGDTLGGVVEAVALGLPVGLGSFTSGDHRLDSQLAAAVMGIQAIKGVEIGDGFQTARRRGSRAHDEMYPGPDGVVRSTNRAGGLEGGMTNGQPLRVRAAMKPISTVPRALATVDLATGDEAVAIHQRSDVCAVPAAGVVVETMVALVLARAALEKFGGDSLAETQRNIAAYQRSVADREAPAARVSGHHHHHH”, the “soluble on expression in E. coli” value is recorded as “soluble”.

Regarding “MGSDKIHHHHHHMKSKIYILLLFLIFLSACANTRHSESDKNVLTVYSPYQSNLIRPILNEFEKQEHVKIEIKHGSTQVLLSNLHNEDFSERGDVFMGGVLSETIDHPEDFVPYQDTSVTQQLEDYRSNNKYVTSFLLMPTVIVVNSDLQGDIKIRGYQDLLQPILKGKIAYSNPNTTTTGYQHMRAIYSMHHRVSDVHQFQNHAMQLSKTSKVIEDVAKGKYYAGLSYEQDARTWKNKGYPVSIVYPIEGTMLNVDGIALVKNAHPHPKRKKLVQYLTSRSVQQRLVAEFDAKSIRKDVSEQSDQSIENLKNIPLIPKSKLPDIPHHKFLEMIQ”, the “soluble on expression in E. coli” value is reported as “not soluble”.

As to “MRDKTLKAILAHAEAEHPKECCGVVAQKSRVEKYFPCENLATNPTEQFHLDPTGYVEAEDWGTITAIVHSHPDATTQPSELDMAQCDNNELPWHIVSWPEGDLRTIQPRGDLPLVGREFVLGHTDCWGLIMSYFRQTHDIELKDYRVDRHWWESGTENFYMDNWYECGFREFSGPAQPGDLIIMQVSAPVANHGGILLEDGMLLHHPYGQLSQRVPYGGYWQERTMKVVRYEISQL”, the “soluble on expression in E. coli” value is recorded as “not soluble”.

As for “MGSDKIHHHHHHMAAFTTTDGLRLFYEDEGTGQPLLCLAGLTRCSRDFEFLRPHVTDLRLIRLDYRGRGQSDYDPDYRNYNVLREAHDVIELLDHLGLDRVTVLGTSRGGMIAMALAASHPDRLAGVILNDVGPVIEPAGIARIMDYVGKKPVSKTHDQAALALKQAMEPQFPGVPLSVWRKQAEIQYAASDQGLALRYDDGLHKALLDQAATGAIPDLWLFFEALRDIPTAVLRGANSDILGAGTVAEMHRRHPGLISAEVPDRGHVPFLDEPQSLDLIRRILETA”, the “soluble on expression in E. coli” value is “not soluble”.

Take “MKPLPDYNHSVVEQLNALTAAGTLQADAAQLGVAAHLDRILADLKARKPARKKSALGWMFARKAGPAAFVKGLYVHGSVGRGKTMLMDMFYEMAPVSSKRRCHFHEFMADVHNRVHTHRQKLKNGETKQADPIPPVAAQLLAEAELLCFDEFTVTDIADAMILARLFSELFANGCTLVTTSNVVPDNLYKDGLNRGLFLPFVDLLKKYVEVVTLDSPTDYRMEKLESLPVYITPLDGSADQAMDMAWRHMTAGHLVAPTEIPMKGRSILVPRRQRPGCPFFLFRPLRKAARSFRLSRHRQSFRYGLHRSHSASQCRQALEHHHHHH”: the “soluble on expression in E. coli” value is “soluble”.

With “MSEKLQKVLARAGHGSRREIESIIEAGRVSVDGKIAKLGDRVEVTPGLKIRIDGHLISVRESAEQICRVLAYYKPEGELCTRNDPEGRPTVFDRLPKLRGARWIAVGRLDVNTCGLLLFTTDGELANRLMHPSREVEREYAVRVFGQVDDAKLRDLSRGVQLEDGPAAFKTIKFSGGEGINQWYNVTLTEGRNREVRRLWEAVGVQVSRLIRVRYGDIPLPKGLPRGGWTELDLAQTNYLRELVELPPETSSKVAVEKDRRRMKANQIRRAVKRHSQVSGGRRSGGRNNNGLEHHHHHH”, the “soluble on expression in E. coli” value was “not soluble”.

Regarding “MGSDKIHHHHHHMGYAYLRGLRNARLQNNNDETSTVFRSCSVPTFQKMRSAYGRRVVKDVFAPNGGVFINRLVEYVTGQGHDFENMLAQKLAISEPLSSSAQVLPVYEHSLVFGLAERVCNDTSIGYALAYQCTLRDAGLVGYAVSASETAGEALYTLSRLSNVFEVVSASASGGLVDLRWDFGSQGKLDLRHWSEFIATLLVRSLKTLCTGAVAPVGVEFTHTAPSSSEQAVLAFGVKPTYRGRLNRLTFREQDLRQPLRSADAGLLRLLLEHAELLRRRPDRNSNDLSITVERLIMDGMSEGDASLAQVAESLDMSQRTLSRKLASEGTSFFAILEGVRKSLALRYLQQNEKSLSEISFALGYSSLSSFNDAFRRWYDQSPGSYRSDALKEAAVKS”, the “soluble on expression in E. coli” value is “not soluble”.

Take “MGSDKIHHHHHHMQLKQSIYFHSPIFLQNILTTIYGRVLYQERYGPVYQKRLQELKEKERFQTNAQAEQLARLNQFLLFCQTYSPYYQELFEQHRITLPLETLDELKQIPILSKEILRTRNADVHAKIRAPILGKTGGTTGKSIQVHYTKEDMQIRMAHLDYFKWTHGIERGMRRASFTGQTLAAESQKAPVYWRMNKAINQMLFTIKNINPQTAALYIEQLNRFNPESIDGLPSGMIEVARHAKKYNIPCTFRPKAIFPTAEMMTAAERQLIEEVFHAPIFDQYASSEGAPIVAECRYGKKHLHYEMGIIEVEEDGQILVTSFDTHGTPLVRYRVGDRMTLSEATCQCGHAGPVIASIDGRGRSFIQLKDGHRIFEGELAGIVRAFPNCIERVQYIQSDKEEIVMLYVPDERCFKEEHEKELYFVLKRLFGGQMEVLLRAVPEIPKEISGKTLLIKQLLLEKS”: the “soluble on expression in E. coli” value is on record as “not soluble”.

Take “MSLGKTLLVDSKGLILDGKHIIPVMGEIHYSRVPESEWRREIRKMKAGGINIISTYIFWIHHEPEEGKWNWSGNHNLRRFVRICAEENVMLVLRLGPFCHGEVYQGGIPSWVHEKAGQNPKYKIRARTPGFLEDCTELYNTIFAQVNGLLWKDGGPVVGVQIENESRGPWDYLEALKNIAVKAGFDVPFYTRTGWPALRGKEVFGQLLPLYGDYADGFWDRKLEDMPGSYADAFIMRDKRMSSAIATETFSKEELSEDSPSLSSKLSYPYFTCELGGGMMPAYHRRININGKELKPLVICKLGSGSNLPGYYMYHGGTNPYNPLHTMGETQSSPGTNHNDLPHMTYDFQAPLGEVGQVFETPFHEGRFIHQMLTDWGSELLQMNVDSLSRHYARRGAFEFYNDYVRIKNESGTSHVTFKDYRTEGATIDWTTVEPFCKVDGLIYFIEIRGKKPQISVDGKVYTCKLNKEGHHHHHH”: the “soluble on expression in E. coli” value was “not soluble”.

As to “MSNSQAGPGASVRRVLAVIPARGGSKGVPAKNLAPVGGVPLVVRAVRECLAARLVTDVVVSTDDQAIAAAAREAGAEVVLRPAAIAGDTATSEAAVLHAMDAHEALHGAAVDVVLLVQCTSPFLVREDVDGVAGAVVEDGADTAVTVAPFHGFVWRDGADEPGGADGGHGVNHDKAYRPRRQDRPQDLLETGAAYAMAAPGFRKHRHRFFGRTDLVRTDPARVLEIDDPHDLARARALAPHFDTARPGALPTAADIDAVVLDFDGTQTDDRVLIDTDGREFVSVHRGDGLGIAALRRSGLTMLILSTEVNPVVAARARKLKLPVLHGIDRKDLALKQWCEEQGIAPERVLYVGNDVNDLPCFALVGWPVAVASAHDAVRGAARAVTTVPGGEGAVREIAAWLLGPSLDALGPASETTPTLTQSKLEHHHHHH”, the “soluble on expression in E. coli” value was “soluble”.

On to “SLDGAHKMARVWVGILNWSLKHIVGLKYRIIGAENIPDRPAVICAKHQSGWETLALQDIFPPQVYVAKRELFKIPFFGWGLKLVKTIGIDRNNRREANEQLIKQGLVRKNEGYWITIFPEGTRLAPGKRGKYKLGGARMAKMFEMDIVPVALNSGEFWPKNSFLKYPGEITVVICPTIPHASGSEAELMEKCEHLIETQQPLISGAGPFAAKMPSETAEG”, for which the “soluble on expression in E. coli” value is “soluble”.

With “IGKVKYNLGFNLYDAKTKITKYNNETGLFGKDKNDKDTYRVGMELGEIWGYVTDRLYTVDDFDADGKLKAGIPKVEGYNPNPGDILYKDLDDNDIINGGTSTTKDPGDRKIIGNSTRRYQYGIHGGANWKGVSLSFLLQGVGKRDLWIMNDLFYPHYDAWTTVYDTQLNYWTPERTDSYFPRLYEKAAGNTAANTRIQTRYLQDGSYLSIRNITLSYNFPSKWMTKIGVNNLAVFFSGENLYTFDHLPKGLDPERSVTDDLGQRGFTYPYMRQYSFGINLSF”, the “soluble on expression in E. coli” value is “not soluble”.

For the sequence “MSLGNREILYKNLFYNAELFTCRFPELSAALGLDSEIGIKQFAERIPESYYLEEAKLKETDKKIFTARINGKYLHSKYNPISEAEKNISLDFFEDKKAKSSCVFCGLGLGYAQELYAKKYPKSSLIIIEPDLFVFFLFLQSRPLDDFFMHENLILLLGLYPKDVLDFFESKSFFDTPIFKIQSLIDVSSSWFSEFEALKKRRNEKTNLNKNTLKKFGKLWLKNFLKNIKQTEGLFGINKIENIFASCPALIIAAGPGLDDTINLVKENEDKFIIIAADTAVRACHRHGLKPDFILLMDAQYWNYLHLSDLDISDSILITESSVYPAVFRLKTRAKFLCTSMFPLAQYIEKLIGEKGKLVTGGSVATACWDFARILGCSEIIFAGLDLAFPDFQTHFKGSRFEEDVNAFSNRFFPSETASHLSLYSASPQLKEGYEGKVLSDKRMQMYAWWFESKIAEFPDIKTYNLLPRGLKIPNMPALSMEEFLLKAKASPLSKKIKIEKMSALFNLSSYKKEGSFSSPNLSSALKELSTDLEKTMKLAREGMDICLNLLDSLKTGKPLEDSIIKKVWKTEGHHHHHH”, the “soluble on expression in E. coli” value is on record as “soluble”.
